In one data set the test system is HSCs. Description: Effect of scAb incubation on HSC viability (attachment, protein assay). The data set is classed as cell-based, human. The conditions noted are these: 3 hours incubation, 5 μg scAb or indicated chemical, FIG. 12. The protocol: Effect of scAb incubation on HSC viability. HSCs seeded into 24 well plates were incubated in 0.3 mls culture medium containing 5 μg scAb or the indicated-chemical. Cells were incubated for 3 hours prior to removal of medium and washing with 1×PBS. Attachment (as a measure of viability) was determined by a direct protein assay in the culture wells.

Data set [1] relates to human HSCs. Kind of data set: Fluorescence microscopy without fixation: effect of peptides and monensin on FITC-C1-3 scAb binding. The data set is classed as cell-based. The conditions noted are these: monensin 2.5 and 15 μM; for effect on FITC-C1-3 association/binding to HSCs: added with 10 μg FITC-C1-3 scAb, peptides 0.25-25 nmoles, FIG. 13. The protocol:
Effect of synaptophysin peptides and monensin on FITC-C1-3 scAb binding to human HSCs. Human HSCs seeded into 24 well plates were washed and incubated in 500 μl Hepes/HBSS per well for 1 hour containing either: 10 μg C1-3 scAb; 10 μg FITC-C1-3 scAb; 10 μg FITC-C1-3 scAb and 0.25 nmoles of the target peptide; 10 μg FITC-C1-3 scAb and 2.5 nmoles of the target peptide; 10 μg FITC-C1-3 scAb and 25 nmoles of the target peptide; 10 μg FITC-C1-3 scAb and 25 nmoles of the target peptide P1; 10 μg FITC-C1-3 scAb and 2.5 μM monensin; 10 μg FITC-C1-3 scAb and 15 μM monensin; 10 μg FITC-3A8 scAb (scAb raised to microcystin and not expected to bind to HSCs). Cells incubated with monensin were preincubated for 10 minutes. Just prior to addition of scAb, the medium was changed and cells were re-dosed with monensin. […] Bar=μm. Monen=monensin; P1=the […] peptide (SEQ ID NO 27); P2=the target peptide.
HSCs seeded into 24 well plates were washed with Hepes/HBSS and then incubated at 37° C. in 500 μl/well Hepes/HBSS containing 10 μg scAb with or without additional compounds. After 1 hour, the cells were washed 3 times with 500 μl Hepes/HBSS. Cells were analysed using an Axiovert 100 microscope (Zeiss, Germany) using filter set #9 (BP 450-490 nm; LP 515 nm).

Data set [2] deals with human hepatic stellate cells. Kind of data set: Fluorescence microscopy of FITC-labelled scAb with cells. The data set is classed as cell-based. The following applies: 10 μg scAb, 1 h, room temperature. As to the method:
(§1) FITC-C1-3 scAb was tested for its ability to interact with hepatic stellate cells in culture by fluorescence microscopy. Human hepatic stellate cells were seeded (1×10^3 cells per chamber) on chamber slides (Nunclon, Naperville) in complete medium prior to experimentation. Cells were washed twice in phosphate buffered saline (PBS) and incubated in 500 μl Hepes/HBSS buffer (0.14M NaCl, 5.4 mM KCl, 0.34 mM Na2HPO4, 0.94 mm KH2PO4, 5.6 mM glucose, 1 mM CaCl2, 6 mM HEPES, 4 mM NaHCO3 pH7.4) containing 10 μg scAb or FITC-C1-3 scAb for 1 h at room temperature in the dark. The cells were then washed in PBS and mounted with Vectashield mounting medium (Vector laboratories, Burlingame, Calif.) containing 4′,6′ diamindino-2 phenylindole (DAPI) to stain cell nuclei and coverslips applied. Florescence microscopy was carried out using a Zeiss Axeola II microscope with a Photometrics Sensis camera, and data captured using the Smart Capture programme. Human hepatocytes (UK Human Tissue Bank) were originally cultured in a collagen-coated 24 well plate (1×10^5/well) and maintained in William's medium E supplemented with 80 units/ml penicillin and 80 μg/ml streptomycin.

The next data set relates to human hepatocytes. The description is as above. The class given is cell-based. As to the method:
as §1

Data set [3] deals with human HSCs. Kind of data set: Uptake of scAb and conjugates by human HSCs in culture (Western blot of medium). The class given is cell-based. The conditions noted are these: 5 μg scAb in 0.3 mls medium, FIG. 11. As to the method:
Uptake of C1-3 scAb and C1-3-conjugates by human HSCs in culture. HSCs seeded into 24 well plates were incubated in 0.3 mls culture medium containing 5 μg scAb. Samples of medium were taken at the indicated times and subjected to Western blotting to detect scAb using HRP-conjugated anti-human Cκ light chain antibody (UPPER PANEL) and serum albumin (LOWER PANEL) as a loading control. Results typical of 4 separate experiments.
(In western blotting, separated proteins are transferred to a membrane and probed.)

Another data set concerns HepG2 cells. Description: Fluorescence binding to cells. The class given is cell-based.
The target of data set [4] is T1, peptide YPFRLHQVYFDAPSC (SEQ ID NO 9) (Homo sapiens, UniProt P08247).
T1 construct: host or cells: chemical synthesis (Fmoc), no expression host
Description: Expressed purified anti-peptide scAb ELISA. The data set is classed as binding. As to the method: Expressed scAb was tested for its ability to interact with the peptide […] (SEQ ID NO: 9) by ELISA using anti-BSA-target peptide scAb. Wells of a 96 well plate were coated with BSA-target peptide or BSA and incubated with either C1-3 scAb (grey bars) or control scAb incubation buffer (clear bars) followed by extensive washing. Bound scAb was detected using the HRP conjugated anti-human Cκ light chain antibody and quantitated as outlined in methods section. Data are the mean and standard deviation of 3 separate determinations. ‘BSA-peptide 2’ is the target peptide.
(§2) Purified polyclonal phage enriched for binders to peptides were assayed by ELISA using flat bottomed 96-well Immulon-4 microtitre plates (Dynex, Sussex, UK) coated with 2 μg/well protein (peptide-BSA or BSA) in PBS overnight at 4° C. Bound phage were detected by incubation with 100 μl/well horseradish peroxidase (HRP) conjugated anti-M13 antibody (AmershamPharmacia) for 1 h, washing, and incubation with 100 μl/well tetramethylbenzidine dihydrochloride solution (KPL Laboratories, Gaithersburg, Md.). Reactions were stopped with 50 μl/well 1M H2SO4, and the absorbance at 450 nm read using a microtitre plate reader.
Expressed scAb was tested for its ability to interact with peptide by ELISA essentially as outlined for polyclonal anti-peptide phage-antibody ELISAs. […]
A general note: An ELISA detects its analyte on a solid surface through an enzyme-linked reagent.

For the next data set, the system named is COS-7 cells. Description: Fluorescence binding to cells. The data set is classed as cell-based.
In data set [5] the test system is hepatic stellate cell and hepatocytes co-cultured. The class given is cell-based, human. The protocol: For co-culture experiments, hepatic stellate cells were seeded into hepatocytes cultures (1×10^3 cells per well) and cultured for 24 h prior to experimentation. The C1-3 or FITC-C1-3 scAb was incubated as outlined for pure hepatic stellate cell cultures except that after 1 hour incubation and washing, the cells were harvested by trypsinisation and centrifugation at 1000 rpm for 5 min. The cell pellet was then resuspended in 0.4% formaldehyde/10^6 cells, applied onto glass slides by cytocentrifugation and mounted with Vectashield containing DAPI. Slides were viewed by fluorescence microscopy as before.

Data set [6] has as its target T2, synaptophysin in human HSCs (Homo sapiens, UniProt P08247).
T2 construct: endogenous in cells; host or cells: human hepatic stellate cells (patient-derived, AH4)
Kind of data set: Western analysis of cell extracts probed with C1-3 scAb. The following applies: human HSC extract, FIG. 8. The class given is binding. As to the method: (§3) Western blot showing the binding of C1-3 scAb to the target peptide. Cell extracts (5 μg/lane) were subjected to Western blotting and membranes probed with C1-3 scAb followed by incubation with HRP conjugated anti-human Cκ light chain antibody and detection using ECL reagent. rHSCs—rat hepatic stellate cells; hHSCs—human hepatic stellate cells (AH4=anonymous patient code); rHCs—rat hepatocytes; B13—rat pancreatic stem cell; B13-H—rat pancreatic stem cell after trans-differentiation into an hepatocyte.
(§4) Western blotting was performed essentially as described in Wright M. C. et al. Mol Pharmacol 1996; 50:856-63.

Data set [7] concerns the target T3, synaptophysin in rat HSCs (Rattus norvegicus, UniProt P07825).
T3 construct: endogenous in cells; host or cells: rat hepatic stellate cells
The data set is described as above. The data set is classed as binding. The conditions noted are these: rat HSC extract, FIG. 8. The protocol: as §3, §4

Another data set deals with T4, target peptide-BSA (Homo sapiens, UniProt P08247).
T4 construct: host or cells: chemical synthesis (Fmoc), no expression host
Description: Monoclonal phage-antibody ELISA. The data set is classed as binding. The following applies: FIG. 3. As to the method: C1-phage antibody clone (monoclonal) assayed for binding to the target peptide-BSA as outlined for FIG. 2.
as §2
Individual colonies from pan 3 were grown in 96 well plates (Greiner) and phage-antibodies rescued with M13 KO7.
Specificity of phage supernatants for binding to peptide-BSA and BSA alone was determined by ELISA. The scFv encoding regions of positive clones were subcloned in to the expression vector pIMS147. This is a modification of the IPTG (isopropyl-β-D-thiogalactopyranoside) inducible pUC based vector pIMS100 (Hayhurst A. et al. Protein Expr Purif 1999; 15:336-43). The addition of a hexa-histadine tag permits purification of the expressed scAb by immobilised metal ion chelate affinity chromatography. Vectors were transformed into E. coli TG1 or XL1 blue cells.

T3 sequence (P07825 whole entry): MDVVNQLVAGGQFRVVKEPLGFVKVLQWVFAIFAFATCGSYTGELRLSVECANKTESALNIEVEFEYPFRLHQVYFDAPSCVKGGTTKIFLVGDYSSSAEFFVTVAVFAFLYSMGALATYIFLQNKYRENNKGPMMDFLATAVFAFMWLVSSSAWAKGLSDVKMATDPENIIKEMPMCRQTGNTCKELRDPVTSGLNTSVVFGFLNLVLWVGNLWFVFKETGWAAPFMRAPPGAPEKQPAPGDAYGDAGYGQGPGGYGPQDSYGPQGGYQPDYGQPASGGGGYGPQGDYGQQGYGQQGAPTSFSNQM
T2 sequence (P08247 whole entry): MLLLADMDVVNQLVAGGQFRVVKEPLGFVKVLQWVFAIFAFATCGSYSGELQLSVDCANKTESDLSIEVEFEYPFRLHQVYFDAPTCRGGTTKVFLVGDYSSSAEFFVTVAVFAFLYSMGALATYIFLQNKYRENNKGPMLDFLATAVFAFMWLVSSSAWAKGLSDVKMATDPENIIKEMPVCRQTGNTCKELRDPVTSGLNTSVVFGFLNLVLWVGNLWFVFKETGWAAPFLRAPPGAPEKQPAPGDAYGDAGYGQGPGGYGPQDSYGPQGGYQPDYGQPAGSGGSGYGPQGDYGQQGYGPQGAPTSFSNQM

For `CN(C)CCCN1c2ccccc2Sc2ccc(Cl)cc21` [chlorpromazine], the “toxicity to HSCs (attachment as measure of viability)” value in the data set with HSCs is reported as “kill HSCs”.
For the molecule “YPFRLHQVYFDAPSC (listed as Homo sapiens) [C1-3 antigen]”, the “effect on FITC-C1-3 association/binding to HSCs” value in the data set with human HSCs [1] was “decreased FITC-C1-3 binding to HSCs in a dose-dependent manner”.
With “FITC-BSA: FITC labelled bovine serum albumin, specificity control [reference compound]”, the “green fluorescence associated with hepatic stellate cells” value in [2] is reported as “displayed cytoplasmic foci of fluorescence”. The “green fluorescence associated with human hepatocytes” value in the data set on human hepatocytes was “displayed cytoplasmic foci of fluorescence”.
On to ATDPENIIKEMPMC (listed as Homo sapiens), for which the “effect on FITC-C1-3 association/binding to HSCs” value in the data set with human HSCs [1] is on record as “did not significantly inhibit”.
As for `CC[C@@]1([C@@H]2O[C@@H]([C@H]3O[C@@](O)(CO)[C@H](C)C[C@@H]3C)C[C@@H]2C)CC[C@H]([C@]2(C)CC[C@]3(C[C@H](O)[C@@H](C)[C@@H]([C@@H](C)[C@@H](OC)[C@H](C)C(=O)O)O3)O2)O1` [monensin], in the data set on human HSCs [1], the “effect on FITC-C1-3 association/binding to HSCs” value was “did not inhibit the total number of cells stained”. The “effect on FITC-C1-3 uptake (nuclear FITC-C1-3 staining)” value in the data set on human HSCs [1] (10 minutes preincubation) is recorded as “reduced uptake”.

B1: C1-3 scAb: human single-chain antibody fragment with human Cκ domain and His tag, specific for synaptophysin peptide …; amino acid sequence SEQ ID NO 8 (protein)
scFv: MAEVQLLESGGGLVQPGGSLRLSCAASGFTFSSYAMSWVRQAPGKGLEWVSTIAASGPSTGYADSVKGRFTISRDNSKNTLYLQMNSLRAEDTAVYYCAKTTAKFDYWGQGTLVTVSSGGGGSGGGGSGGGGSTDIQMTQSPSSLSASVGDRVTITCRASQSISSYLNWYQQKPGKAPKLLIYSASRLQSGVPSRFNGSGSGTDFTLTISSLQPEDFATYYCQQLQRKPTTFGQGTKVEIKRGAAAPSVFIF
modifications: human Cκ domain and His tag; C1-3 amino acid sequence
For the molecule B1, the “association with HSCs: change of culture medium concentration of scAb” value in the data set on human HSCs [3] is recorded as “reduction in culture medium concentrations”. Besides, in the data set on HepG2 cells, the “fluorescence binding to HepG2 cells” value is on record as “not detected”. Also, the “scAb bound to peptide-BSA relative to BSA alone” value in data set [4] (ELISA, FIG. 7) is listed as “approximately 8 times”. Further, the “recognition of the peptide in ELISA” value in data set [4] (expressed scAb from XL-1 blue E coli) is reported as “specifically recognised the peptide”. In data set [2], the “green fluorescence associated with hepatic stellate cells” value is listed as “No detectable green fluorescence”. Also, the “green fluorescence associated with human hepatocytes” value in the data set with human hepatocytes was “no associated green fluorescence”. Further, the “fluorescence binding to COS-7 cells” value in the data set on COS-7 cells is reported as “not detected”. The “green fluorescence in hepatic stellate cell/hepatocyte co-cultures” value in data set [5] is reported as “No significant green fluorescence”. Also, the “size of protein bound by scAb in Western analysis” value in data set [6] was about 32 kDa. In addition, the “cross-reaction with synaptophysin in rat HSCs” value in data set [7] is on record as “did not cross-react”.

B2: C1: monoclonal phage-antibody clone from pan 3 of Tomlinson I+J libraries, subcloned to give C1-3 scAb (protein)
scFv: MAEVQLLESGGGLVQPGGSLRLSCAASGFTFSSYAMSWVRQAPGKGLEWVSTIAASGPSTGYADSVKGRFTISRDNSKNTLYLQMNSLRAEDTAVYYCAKTTAKFDYWGQGTLVTVSSGGGGSGGGGSGGGGSTDIQMTQSPSSLSASVGDRVTITCRASQSISSYLNWYQQKPGKAPKLLIYSASRLQSGVPSRFNGSGSGTDFTLTISSLQPEDFATYYCQQLQRKPTTFGQGTKVEIKRGAAA
In the case of B2, the “binding response in monoclonal phage-antibody ELISA” value with target peptide-BSA is on record as “good binding response”.
